Data: the DeepSol protein solubility set

Assay: soluble on expression in E. coli; label from the status in PepcDB or PDB records

| Sequence | soluble on expression in E. coli |
| --- | --- |
| MSLIHEISENEKPREKLQNYGIEALSSSELVALIIETGTKNESVLTIANRIIMKFKNVGEMQYASIEEFQLVNGIGIAKASKIMAAIELGRRIGIVTEQEEVVVRCPEDAVKLVMPELAFLFQEHFHCLFLNTKNQVIYRQTIFVGGLNASIVHPREVFRLALRKSAASIMCFHNHPSGDPTPSSEDLLVTKRLAEAGNIVGITLLDHIIIGKNKYISLKEKGYFEGHHHHHH | not soluble |
| MHQQIIKFWFEELTPQNWFENNPELDKHIASRFASVLEQAARCELFNWRDSAQGRLAEIIVLDQFSRNVYRNTPKAFAQDPLALALAQEAIRLGHDQELAPEQLSFLYMPFMHSESRLIHVEAEKLFRASGLENNYDFELKHKAIIDQFGRYPHRNAILGRESTPEELAFLQQPGSSF | not soluble |
| MASCQKSIFLGRLTTFTDSNISPTSLIFSSKMSSRTLRSSSSSNAISTKTQPKTEEAPLIPVTKGPVIRMTSNMADKAQNDHSMWPSTSKFESIWGNVLGERVNKSTIAAIREGMKIENKVTCGCRPGQDCSTNPACRCFQTASRLREHFGSDILTRGKPVKTVDTMYWDRPMFACSGSCGCKGQCNLNALQDICEDPAKKFKITRTDGKGFCVYSARVIKKGSPVLEFSGEITDYLAIKSNADIEQYSIMLYNNETKLCDFFSKEENLSSKYKKILWSAYRSKAWINPLNRGNCARFFSHGCKANMELGRVFQGGFSPADMKIVLFAKEIIKPGTELTFNYGPSYKEIFLGNKCLCEACKKEAVKKLENAVKRILKNSRDPSEPPSKKKSVKKLDGKENVR | not soluble |
| MDFSEASTSGDRVNGFAKPFPPKPREGAPPPAPPLAPGASTSQAPPPLQPPPVIESAEKFYVPGVEEKSKFRILSQQVEISNLNISTRSFNVRTEIVLLPCEKSLYQLDLHIGKCSLLPNEVPGSASKVTLNGVECEYSRRDFWKDLAQEKSISSLEPVLYEKLAENDYELQILIPKEVRKKIKHRKAVRLRVDTVVRDPPRGLQFVDFNEHDCHVFTYHTPHISGAREWTVCLDEPDQLALWELTFELEPHLVPVASGELEEKREVSENGKIRYKFHQTVPTSACNIGWAIGRFKLEPHPESPTIYTFSLPGLEPFVNHTTMYLDKMVEFLEEKLSCRFPYPTLKVVFVDQCTEEIQVYSSLLIVPTAMLYHKKIIDVVQEARQKLIFSIALQFFGCLISPAQWWHWWIPVSIARFLTSLYVETKLGTAEARWQLKRAMDDVCDYEHQWGKIVLSPPEPTKKLPLHVDPRHEYTASPLYVEAMLKKGFLTMRMLQRRIGLEPFMRVLHRVLTVGLDMSEKKTTPAAWRHLLTTTESFFRSVISVTGKEIPSFLSQFVRTGGHAAFAVKFDFNRKRNIVEIEIKQDDTEGNGRTQYTGPLSVVVQEVDGAFTHTIQIDGAVSHAEISCHSKGRKQRKKKVPLLTGEEIEIDLTNMDAESPILWLRIDPDYLLIREITISQPMFHWEYMLRYERDVIAQMEALERIQALPSAHSRSVIVDAVANEKFFYRIRYRAAFVLTFVQNRKSEALTVGTPVLINMFRESFGSKAATNIPRSNNFVVTAQNLQQYFVMQALPQAIARLRRQSGECHEDVQPFLLDLIKFNDNSTNRYSDDFYRAALYNSLASSVFPHDALPCHVELPENLSNDVRVLIKEFTYALNMDTVSPSWGRVVGAAALTGLYQLQKCGYLPLDSQLLWTFSHPNCCVQMRRCAITLIIDRIVNDPHAADTRMLDLSRILELAELEQDPSIRRMIPRLLAQTPPTIFGSENAANTAETAERLWKLCTNSSIDSCIRSGFLDVYYSLYALGAPPALGGPEESVGIHRAYVTVPNAASTFATSQWHNSGYEAARRSPPRRDFGDETMNLMQ | soluble |
| MNRNKWQRVPAPNTRGAKMHGWVREMDEAYREVNGEYAVLVRTLNTKLGTVKHAAIRNATETDITWSEKQRIKNEIFGEEKQAIEFFPKQSELIDEANMYHLWILEDCELEFGIYE | not soluble |
| GHMSYSITLRVYQTNRDRGYFSIVEKTVWHFANGGTWSEANGAHTLTMGGSGTSGMLRFMSTKGERITVAVGVHNYKRWCDVVTGLKPDETALVINPQYYNNGGRDYVREKQLAEYSVTSAIGTKVEVVYTVAEGNNLEANVIFS | soluble |
| MSTVVEKSGEAKPGKVEVGVKLRGAEKVARIPVKIIPTEELPKKPDWIRVRIPVSPEVDRIKQLLRKHKLHSVCEEASCPNLGECFSGGTATFMIMGDICTRRCPFCDVGHGRPKPLDVDEPTNLAIAIADLRLKYVVITSVDRDDLRDGGAQHFADCLREIRKLSPGIQLETLVPDYRGRMDIALEITANEPPDVFNHNLETVPRLYRSSRPGSDFEWSLDLLQKFKQMVPHVPTKSGLMLGLGETDDEVIEVMQRMREHDIDMLTLGQYLQPSRNHLPVQRFVHPDTFAWFAEEGEKMGFKNVASGPLVRSSYHADQQAHGNKIG | not soluble |
| MSLEAAPAGSGPLRRTFLVPEIKSLDQYDFSRAKAAASLAWVLRAAFGGAEHVPPELWEPFYTDQYAQEHVKPPVTRLLLSAELYCRAWRQALPQLEPSPSPSALLALLARRGTVPSLPEHPVREADLKHQPILMGAHLAVIDALMVAFSFEWTKTLPGPLALSSLEHKLLFWVDTTVRRLQEKTEQEAAQRASPAAPLDGASEGHHHHHH | not soluble |
| MKALIVDDEPLARNELQYLLNLNDAIDEIEEAENIEETLEKLLYNTFDLIFLDINLMDESGIDLAQKINKMKRSPHIIFATAHEKFAVKAFELNATDYILKPFEKERINQAVNKVDMAKDKSKNKDKTITPKYIDYSDDERAQTHVLPIEVDERIHILNFTDIIALSVNNGITTIDTTKQSYETTETLNHYEKKLPSSLFIKIHRATIVNKEHIQTIEHWFNYTYQLTLTHEFKYQVSRSYMKTFKQQLGLQ | not soluble |
| MSLSYPYYIVDAFAEEVFKGNPAAVYVLEKWLPEAVMQNIAIENNLSETAFTVKEGQSYALRWFTPEREIDLCGHATLATAFVLFNYYSVAEETLHFTSQSGPLAVTKKEEYYYLDFPYILPERIPILPEYEAALGTKIYEAYLGRDLFFVLKDEETVAKITPDFSALKALDLGVGVIVTASGDSVDFVSRTFFPKLRINEDPVCGSAHANLIPYWGKRLNQTTLSAYQVSPRGGFLTCEVKENRVIIGGTAKLFAKGEAYLPVEGGSHHHHHH | soluble |
| MGSDKIHHHHHHMISDTTIRKLVDYISLNACSVNSSGLYNGKSGISLALFETAKCLQDTEIEDKAFSLFQESLIRKTNDYGFENGMSGIGYVLIYLITNKLIDADFEDLFGDQREAIIKHFENIDKQPDKLLVSYKIIYFLFVLDKLQKQDERIYSIIEKIFQGLELYLSLQFFDWKNIYYINSKDYVLQMYEAYLKLVDFCNYKYFSKSLMDSYVTLYSEGRIASSLVRGYYLHSIITKNNMVGFNDVIRDHIRYGQKNINPAILFLDQKINLTGIIENADENRVKIQRIEMDLFEESLERIKRMVRPNCIHVGYQYGLARYLGFCANKKFPLL | not soluble |
| SLHCIPLWRCNRHVESIDKRHCSLVYVPEEIYRYARSLEELLLDANQLRELPEQFFQLVKLRKLGLSDNEIQRLPPEIANFMQLVELDVSRNEIPEIPESISFCKALQVADFSGNPLTRLPESFPELQNLTCLSVNDISLQSLPENIGNLYNLASLELRENLLTYLPDSLTQLRRLEELDLGNNEIYNLPESIGALLHLKDLWLDGNQLSELPQEIGNLKNLLCLDVSENRLERLPEEISGLTSLTDLVISQNLLETIPDGIGKLKKLSILKVDQNRLTQLPEAVGECESLTELVLTENQLMTLPKSIGKLKKLSNLNADRNKLVSLPKEIGGCCSLTVFCVRDNRLTRIPAEVSQATELHVLDVAGNRLLHLPLSLTALKLKALWLSDNQSQPMLTFQTDTDYTTGEKILTCVLLPQLPSEPTCQENLPRCGALENLVNDVSDEAWNERAVNRVSAIRFVEDEKDEEDNETRTLLRRATPHPGELKHMKKTVENLRNDMNAAKGLDSNKNEVNHAIDRVTTS | not soluble |
| MPFSQIGINGIVNLKKMHVKNYRAPQVSVLNFLPPRHIVLGLENLDIGLGSEFTANAVPIVVEGSLVGQITGMTVALTTELLTDVTGKMNAVVRNCSALIGNSHIVLNPTGPMSIFVKTFEPMINDSVRQRIPEMFCSRLQNLIEKNISKLFEFITKIDLEDYFPKASNVEKDVMNM | not soluble |
